How the values were obtained:
[1] = target: T1, GDF15-HIS(百普赛斯，CAT#:GD5-H5149) (human, UniProt Q99988 197-308); test: cell-based or functional assay
T1 sequence (looked up): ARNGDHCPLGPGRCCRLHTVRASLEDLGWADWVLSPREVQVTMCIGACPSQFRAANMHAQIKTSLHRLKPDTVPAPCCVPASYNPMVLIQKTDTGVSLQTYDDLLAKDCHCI

[2] = target: T2, GDF1(R&D，6937-GD-010) (UniProt P27539 254-372); test: ELISA, GDF1 coated at 1 μg/ml, HRP-anti-human IgG
T2 sequence (looked up): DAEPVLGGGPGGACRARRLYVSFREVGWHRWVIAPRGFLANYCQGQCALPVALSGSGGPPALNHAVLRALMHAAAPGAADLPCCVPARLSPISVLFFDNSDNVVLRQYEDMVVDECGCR

[3] = target: T3, GDF3(R&D，5754-G3-010) (UniProt Q9NR23 251-364); test: ELISA, GDF3 coated at 1 μg/ml, HRP-anti-human IgG
T3 sequence (looked up): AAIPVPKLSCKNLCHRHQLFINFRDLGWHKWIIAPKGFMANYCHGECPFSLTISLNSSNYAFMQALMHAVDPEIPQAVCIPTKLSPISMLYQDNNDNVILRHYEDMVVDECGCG

B1: 53E5(hz) (antibody, human IgG1, kappa, V domains shown)
VH: QVQLQESGPGLVKPSETLSLTCTFSGFSLSTSGMGVGWIRQPPGKGLEWLAHILWDDVKRYNPALKSRLTISKDSSKSQISLKLSSVTAADTAVYYCVQMAWDWFAYWGQGTTVTVSS
VL: DIQMTQSPSSLSASVGDRVTITCKASQNVDTNVAWYQQKPGQSPKALIYSASYRSSGVPSRFSGSGSGTDFTLTISSLQPEDFATYYCQQYHSYPTFGQGTRLEIKR
notes: also called 人源化抗体53E5(hz); 53E5人源化
Question: Which “Bottom (fold luciferase activity), HEK293 SRE-LUC2-cRET-GFRAL reporter cells” value [1] does the source give for B1 here?
Answer: Its value is 1.1.

Question: What about the “IC50(μg/ml), luciferase in HEK293 SRE-LUC2-cRET-GFRAL reporter cells stimulated with 5 ng/ml GDF15-His” value [1] of the same binder?
Answer: Its value is 0.0225 µg/mL.

Question: Does B1 bind [2]?
Answer: Result: no binding (tested: 4μg/ml)

Question: Does B1 bind [3]?
Answer: Result: no binding (tested: 4μg/ml)

B2: AV380-hIgG1 (antibody)
heavy: not shown
light: DIQMTQSPASLSASVGETVTITCRTSENLHNYLAWYQQKQGKSPQLLVYDAKTLADGVPSRFSGSGSGTQYSLKINSLQPEDFGSYYCQHFWSSPYTFGGGTKLEIKRTVAAPSVFIFPPSDEQLKSGTASVVCLLNNFYPREAKVQWKVDNALQSGNSQESVTEQDSKDSTYSLSSTLTLSKADYEKHKVYACEVTHQGLSSPVTKSFNRGEC
Question: For B2, which “Bottom (fold luciferase activity), HEK293 SRE-LUC2-cRET-GFRAL reporter cells” value [1] is on record?
Answer: The value was 1.03.

Question: And the “IC50(μg/ml), luciferase in HEK293 SRE-LUC2-cRET-GFRAL reporter cells stimulated with 5 ng/ml GDF15-His” value [1]?
Answer: Its value is 0.0447 µg/mL.
